Source: patent US20250011363A1, “OPTIMIZED SHORTENED PEPTIDE THAT BINDS TO ACETYLCHOLINE RECEPTOR, AND USE THEREOF” (SKINMED CO., LTD., priority 2021, published 2025)

target: acetylcholine receptor (Homo sapiens, UniProt P02708); assay: SPR binding affinity (RU) of optimized 5mer/6mer/7mer peptides, Examples 6-7; conditions: SPR, peptides tested at 10 μM; 5mer Top sequence
Experimental: Based on the frequencies of occurrence of the top 7 amino acids from Table 7 in Example 5, 600 peptides comprising these amino acids (top combinations) and those comprising the 13 less frequently occurring amino acids (bottom combinations) were synthesized for each series of 5mer, 6mer-1, and 6mer-2. The binding affinity of each sequence for the acetylcholine receptor was measured using Surface Plasmon Resonance (SPR) analysis method. The peptides were tested at a concentration of 10 μM. Additionally, the average binding affinities of the top and bottom combinations in each series are depicted in FIGS. 5-7.
Representative peptides identified in Example 6, two in each library, including 5mers (73, 311) and 6mers-1 (43, 210) and 6mers-2 (136, 233), were compared with the pre-optimized 6mer, 5mer-ND, and Synake.

Sequence of acetylcholine receptor (P02708 21-457): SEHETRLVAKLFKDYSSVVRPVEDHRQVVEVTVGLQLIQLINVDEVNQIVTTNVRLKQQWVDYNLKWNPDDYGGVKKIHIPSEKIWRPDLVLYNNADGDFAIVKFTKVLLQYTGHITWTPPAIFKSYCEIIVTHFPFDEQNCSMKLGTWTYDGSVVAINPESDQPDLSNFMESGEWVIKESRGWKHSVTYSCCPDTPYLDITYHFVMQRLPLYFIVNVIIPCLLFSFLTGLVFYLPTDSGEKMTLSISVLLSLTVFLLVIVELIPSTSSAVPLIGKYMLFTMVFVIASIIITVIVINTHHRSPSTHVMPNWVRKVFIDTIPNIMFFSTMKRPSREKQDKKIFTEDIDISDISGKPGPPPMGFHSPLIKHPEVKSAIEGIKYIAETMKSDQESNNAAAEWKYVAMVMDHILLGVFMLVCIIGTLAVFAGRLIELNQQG

Substance | Binding affinity [Ru]
5mer-430 (KWRTK) | 80
5mer-431 (KVQLK) | 81
5mer-432 (RQVRR) | 52
5mer-433 (KWRCR) | 73
5mer-434 (RVLQK) | 74
5mer-435 (KLRQR) | 69
5mer-436 (RVFYK) | 60
5mer-437 (RVRLR) | 50
5mer-438 (RVRSR) | 76
5mer-439 (KRVTR) | 65
5mer-440 (RQVTK) | 57
5mer-441 (KLIRK) | 53
5mer-442 (KVRLR) | 61
5mer-443 (RGFTK) | 80
5mer-444 (KQQYR) | 65
5mer-445 (RLFTR) | 77
5mer-446 (RGLQK) | 53
5mer-447 (KGYYK) | 76
5mer-448 (RQIRK) | 74
5mer-449 (KGLYR) | 65
5mer-450 (RVIQK) | 78
5mer-451 (RQVLK) | 53
5mer-452 (RGVSK) | 82
5mer-453 (KGVCR) | 68

Substance | Binding affinity [Ru]
5mer-454 (RQVLR) | 77
5mer-455 (RWLYK) | 61
5mer-456 (RLVCK) | 52
5mer-457 (RGQYK) | 59
5mer-458 (RRFLK) | 65
5mer-459 (RSQLR) | 76
5mer-460 (RLQQR) | 74
5mer-461 (KQLLK) | 74
5mer-462 (RWQSK) | 69
5mer-463 (KWYTK) | 52
5mer-464 (RGVTR) | 57
5mer-465 (RWFRK) | 57
5mer-466 (RRVRK) | 53
5mer-467 (RRIYR) | 83
5mer-468 (RWQCK) | 54
5mer-469 (KSRRR) | 69
5mer-470 (KQRSK) | 57
5mer-471 (RGYLR) | 69
5mer-472 (RRYRK) | 55
5mer-473 (RLVQR) | 75
5mer-474 (RQFLR) | 80
5mer-475 (RRFCK) | 56
5mer-476 (RSICK) | 70
5mer-477 (KGYSR) | 58

Substance | Binding affinity [Ru]
5mer-478 (RVQTK) | 75
5mer-479 (RQYYK) | 70
5mer-480 (RWYLR) | 75
5mer-481 (KSYCK) | 78
5mer-482 (KQFCK) | 75
5mer-483 (RSISR) | 51
5mer-484 (RSFQK) | 51
5mer-485 (KRQRK) | 58
5mer-486 (RWLQR) | 53
5mer-487 (RLVTK) | 62
5mer-488 (KVRSR) | 58
5mer-489 (KSYSR) | 63
5mer-490 (RWLLK) | 60
5mer-491 (KQIRR) | 81
5mer-492 (RVVLR) | 80
5mer-493 (KSIRR) | 57
5mer-494 (RGFCK) | 54
5mer-495 (KVVTK) | 52
5mer-496 (KGIQK) | 81
5mer-497 (KRRCR) | 76
5mer-498 (KLISK) | 53
5mer-499 (RVLTK) | 76
5mer-500 (KSLQK) | 63
